Reference: paper PMC7895813 (Journal of Molecular Biology, 2021)
Where a chain is given by its changes, count along the chain named. In names and notes the source's numbering stands. One block for each binder: values may come before it.

What was measured:
[1] = target: the molecule itself; assay: SEC; GST-MDM2 variants (3 mg/mL) incubated with 1:10 TEV for 16-20 h at 4 °C; soluble fraction of the cleaved products on Superdex 75 Increase 10/300; comparison with molecular weight markers and SDS-PAGE
[2] = target: T1, UbcH5B–Ub, isopeptide-linked E2–Ub conjugate (UbcH5B S22R C85K) (human | , UniProt P62837 1-147; P0CG48 1-76, S22R | C85K, lysine 85 (C85K) isopeptide-linked to the C-terminus of Ub | C-terminus isopeptide-linked to lysine 85 of UbcH5B); assay: SPR; GST-tagged MDM2 variants captured on a CM-5 chip with coupled anti-GST antibody; serial dilution of UbcH5B–Ub as analyte; Biacore T200, 25 °C; 25 mM Tris-HCl pH 7.6, 150 mM NaCl, 1 mM DTT, 0.005% Tween-20; two technical replicates; details: both partners purified
T1 construct: ubiquitin (Ub), the cut product of the ubiquitin precursor; Ub was cloned with an N-terminal 6xHis-tag, a TEV cleavage site and a GGS linker; also called E2(UbcH5B)–Ub; source: E. coli BL21(DE3) GOLD, purified; conjugate generated as described previously

[3] = target: the molecule itself; assay: SEC; cleaved MDM2 variants after removal of the GST-tag on HiLoad 16/600 Superdex 75; oligomeric state by comparison with molecular weight markers

B1: MDM2^h A434S (human MDM2 419-C A434S), GST-tag removed (domain or fragment, UniProt Q00987 419-491, looked up)
chain: TQDKEESVESSLPLNSIEPCVICQGRPKNGCIVHGKTGHLMACFTCAKKLKKRNKPCPVCRQPIQMIVLTYFP
notes: MDM2, human, residues 419 to the C-terminus, with A434S; source: E. coli BL21(DE3) GOLD, GST-MDM2 treated with TEV, soluble cleaved products on analytical SEC; not shown: GST, N-terminal, cleaved
binding result [1]: binds

B2: human MDM2 419-C G443T (MDM2^hGT), GST-tag removed (domain or fragment, UniProt Q00987 419-491, looked up)
chain: B1 chain with S16A, G25T
notes: MDM2, human, residues 419 to the C-terminus, with G443T; also called MDM2^h G443T; MDM2-G443T; source: E. coli BL21(DE3) GOLD, GST-tag released with TEV, Superdex 75 gel filtration; not shown: GST, N-terminal, cleaved
stoichiometry N [1]: 2

Kd [2]: 16.3 ± 1.9 µM
B3: GST-tagged human MDM2 419-C G443T (MDM2^hGT) (domain or fragment, UniProt Q00987 419-491, looked up)
chain: B1 chain with S16A, G25T
notes: MDM2, human, residues 419 to the C-terminus, with G443T; pGEX-4T1, N-terminal GST-tag followed by a TEV cleavage site; GST kept for SPR and ubiquitination assays; also called GST-MDM2^hGT; MDM2^h G443T; source: E. coli BL21(DE3) GOLD, purified (glutathione Sepharose, gel filtration); not shown: GST, N-terminal, kept

Kd [2]: 13.5 ± 0.6 µM
B4: GST-tagged human MDM2 419-C (MDM2^h) (domain or fragment, UniProt Q00987 419-491, looked up)
chain: B1 chain with S16A
notes: MDM2, human, residues 419 to the C-terminus (RING domain with the preceding region); pGEX-4T1, N-terminal GST-tag followed by a TEV cleavage site; GST kept for SPR and ubiquitination assays; also called GST-MDM2^h; wild-type MDM2^h; source: E. coli BL21(DE3) GOLD, purified (glutathione Sepharose, gel filtration); not shown: GST, N-terminal, kept

B5: MDM2^h P491S (human MDM2 419-C P491S), GST-tag removed (domain or fragment, UniProt Q00987 419-491, looked up)
chain: B1 chain with S16A, P73S
notes: MDM2, human, residues 419 to the C-terminus, with P491S; source: E. coli BL21(DE3) GOLD, GST-MDM2 treated with TEV, soluble cleaved products on analytical SEC; not shown: GST, N-terminal, cleaved
binding result [1]: binds

B6: MDM2^h I435V (human MDM2 419-C I435V), GST-tag removed (domain or fragment, UniProt Q00987 419-491, looked up)
chain: B1 chain with S16A, I17V
notes: MDM2, human, residues 419 to the C-terminus, with I435V; source: E. coli BL21(DE3) GOLD, GST-MDM2 treated with TEV, soluble cleaved products on analytical SEC; not shown: GST, N-terminal, cleaved
binding result [1]: binds

B7: Danio rerio MDM2 407-C (MDM2^z), GST-tag removed (domain or fragment, Danio rerio (zebrafish), UniProt O42354 377-445, looked up)
chain: FNSLEACLPATCLEPCVICQSRPKNGCIVHGRTGHLMACYTCAKKLKNRNKLCPVCREPIQSVVLTYMS
notes: MDM2, Danio rerio (zebrafish), residues 407 to the C-terminus; 407-417 correspond to 423-433 of human MDM2, which implies a numbered chain of about 475 residues; also called zebrafish MDM2 407-C; source: E. coli BL21(DE3) GOLD, GST-tag released with TEV, Superdex 75 gel filtration; not shown: GST, N-terminal, cleaved
stoichiometry N [3]: 2
